{"source": "paper PMC5979045", "biological_target": "Toll-like receptor 4 (TLR4) on mouse bone marrow-derived dendritic cells (mouse (endogenous in bone marrow-derived DCs)) (UniProt Q9QUK6)", "sequence (Q9QUK6 26-835)": "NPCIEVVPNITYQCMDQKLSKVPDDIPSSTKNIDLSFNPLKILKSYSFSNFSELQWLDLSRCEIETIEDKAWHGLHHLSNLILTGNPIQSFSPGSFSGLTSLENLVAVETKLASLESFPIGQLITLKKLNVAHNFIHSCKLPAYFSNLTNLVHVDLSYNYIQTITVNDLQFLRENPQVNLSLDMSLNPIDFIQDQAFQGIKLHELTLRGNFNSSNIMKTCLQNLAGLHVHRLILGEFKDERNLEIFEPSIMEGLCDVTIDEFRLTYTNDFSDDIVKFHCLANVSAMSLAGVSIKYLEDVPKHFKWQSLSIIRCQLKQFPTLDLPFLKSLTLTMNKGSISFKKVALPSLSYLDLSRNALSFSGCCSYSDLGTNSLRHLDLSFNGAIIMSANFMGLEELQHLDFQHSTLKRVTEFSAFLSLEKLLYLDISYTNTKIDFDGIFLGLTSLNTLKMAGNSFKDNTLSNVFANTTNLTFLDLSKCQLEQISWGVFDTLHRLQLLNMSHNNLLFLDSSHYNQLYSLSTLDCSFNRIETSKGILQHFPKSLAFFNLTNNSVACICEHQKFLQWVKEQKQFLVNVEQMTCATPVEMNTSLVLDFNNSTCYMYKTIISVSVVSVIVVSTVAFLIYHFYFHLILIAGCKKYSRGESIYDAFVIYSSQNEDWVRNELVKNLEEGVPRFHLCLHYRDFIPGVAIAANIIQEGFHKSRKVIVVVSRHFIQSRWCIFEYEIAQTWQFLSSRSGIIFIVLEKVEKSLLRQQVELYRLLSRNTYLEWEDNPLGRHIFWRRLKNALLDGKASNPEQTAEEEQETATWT", "assay": "flow cytometry on cells; immature bone marrow-derived DCs of WT C57 BL/6 mice, pre-incubated with IgG1 isotype, TLR2 blocking or TLR4 blocking antibody on ice for 1 h, then stained with anti-CD11c APC, anti-TLR2-FITC, anti-TLR4-PE-Cy7 and rTs-Hsp70-PE on ice for 30 min; rTs-Hsp70-PE and TLR2-FITC or TLR4-PE-Cy7 double positive cells among CD11c+ cells", "data": [{"substance": "Recombinant Trichinella spiralis Heat shock protein 70 (natural protein)", "values": [{"measurement": "percent of TLR4+ cells on CD11c+ DCs bound by rTs-Hsp70", "result": 12.3, "unit": "%"}]}]}
